Earlier results on 1 substance are cited in patent US12377133B2 (Ascendis Pharma Growth Disorders A/S, priority 2019, dated 2025).

The conditions of the data set: Lorget et al. 2012.

Bridges are numbered along the chain shown (N, C = ends). Where no end group is shown, it is not given here.

For “BMN111: recombinant CNP-39: 37 C-terminal amino acids of human CNP-53 plus glycine and proline added at the N-terminus (PGQEHPNARKYKGANKKGLSKGCFGLKLDRIGSMSGLGC; disulfide 23-39; chains of the INN, looked up)”, the half-life was 20 min.
